Laboratory results published in US20110217279.

T1: variant peptide GLKRNRYLAFHFKSGSL
T1 sequence: GLKRNRYLAFHFKSGSL

T2: hBVR-derived substrate peptide GLKRNRYLSFHFK (hBVR aa222-234)
T2 sequence: GLKRNRYLSFHFKS

T3: variant peptide GLKRNRYLAFHFK
T3 sequence: GLKRNRYLAFHFK

B1: GST-hBVR fusion protein (protein)
chain: MNAEPERKFGVVVVGVGRAGSVRMRDLRNPHPSSAFLNLIGFVSRRELGSIDGVQQISLEDALSSQEVEVAYICSESSSHEDYIRQFLNAGKHVLVEYPMTLSLAAAQELWELAEQKGKVLHEEHVELLMEEFAFLKKEVVGKDLLKGSLLFTSDPLEEDRFGFPAFSGISRLTWLVSLFGELSLVSATLEERKEDQYMKMTVCLETEKKSPLSWIEEKGPGLKRNRYLSFHFKSGSLENVPNVGVNKNIFLKDQNIFVQKLLGQFSEKELAAEKKRILHCLGLAEEIQKYCCSRK

How the values were obtained:
[1] = system: T1, variant peptide GLKRNRYLAFHFKSGSL
[2] = system: T2, hBVR-derived substrate peptide GLKRNRYLSFHFK (hBVR aa222-234)
[3] = system: T3, variant peptide GLKRNRYLAFHFK
[4] = target: active recombinant human PKC-δ kinase (as a GST fusion protein), Q05655
Sequence of active recombinant human PKC-δ kinase (as a GST fusion protein), Q05655 (Q05655 whole entry, looked up, stated change not applied, the tested form may be a part): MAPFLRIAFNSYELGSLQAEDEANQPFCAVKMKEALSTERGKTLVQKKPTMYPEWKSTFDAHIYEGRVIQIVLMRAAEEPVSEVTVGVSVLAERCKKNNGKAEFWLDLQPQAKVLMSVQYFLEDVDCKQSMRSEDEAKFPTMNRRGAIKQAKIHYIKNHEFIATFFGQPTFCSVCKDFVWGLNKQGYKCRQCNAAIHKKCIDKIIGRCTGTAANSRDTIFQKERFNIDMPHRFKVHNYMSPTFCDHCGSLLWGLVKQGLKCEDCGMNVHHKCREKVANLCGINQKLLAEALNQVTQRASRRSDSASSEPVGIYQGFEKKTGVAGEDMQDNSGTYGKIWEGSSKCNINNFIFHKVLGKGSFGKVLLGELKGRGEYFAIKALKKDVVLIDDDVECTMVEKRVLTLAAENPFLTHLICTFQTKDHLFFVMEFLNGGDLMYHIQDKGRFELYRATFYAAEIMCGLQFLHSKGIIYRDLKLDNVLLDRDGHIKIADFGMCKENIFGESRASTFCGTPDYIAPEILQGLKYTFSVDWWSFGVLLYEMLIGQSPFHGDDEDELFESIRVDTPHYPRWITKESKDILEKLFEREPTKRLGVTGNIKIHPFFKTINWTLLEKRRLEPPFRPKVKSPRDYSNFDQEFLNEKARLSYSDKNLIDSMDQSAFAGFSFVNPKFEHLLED

Molecule	phosphorylation of the peptide by PKC-δ (kinase assay, FIG. 4C) [1]	Km (phosphorylation of the peptide, in vitro kinase assay, Michaelis-Menten fit) [2]	phosphorylation of the peptide by PKC-δ (kinase assay, FIG. 4C) [3]	PKC-δ autophosphorylation, phosphorylation of hBVR and kinase activity toward MBP (in vitro kinase assay) [4]
active recombinant human PKC-δ kinase (as a GST fusion protein)	As with the shorter peptide, the replacement of serine with alanine markedly decreased phosphorylation of the peptide	Km of 1.59±0.58 µM	A variant peptide in which the target serine was replaced by alanine was, as expected, not a substrate for the kinase	–
recombinant PKC-βII	–	Km 14.03 µM	–	–
recombinant PKC-ζ	–	Km 6.89 µM	–	–
B1	–	–	–	resulted in phosphorylation of hBVR concomitant with an enhanced PKC-δ autophosphorylation (FIG. 1A), and increased kinase activity toward the substrate, MBP (FIG. 1B)
